Numbering of substitutions follows the chain as printed.
B1: 531_1L2_variant3 Fab (Fab, V domains shown)
VH: EVQLLESGGGLVQPGGSLRLSCAASGYTFTRYWLNWVRQAPGKGLEWIGMIDPSVSETHYADSVKGRATLSVDKSKNTAYLQMNSLRAEDTAVYYCSQIRLPYYYAMDSWGQGTTVTVSS
VL: DIQMTQSPSSLSASVGDRVTITCRASQDINSFLNWYQQKPGKAVKLLIYYTSRLQSGVPSRFSGSGSGTDYTLTISSLQPEDFATYFCQQGNTLPRTFGGGTKVEIK
notes: Humanized Fab; The His-tag was removed with TEV protease before SPR
B2: 531_1L2_variant21 Fab (Fab, V domains shown)
VH: QVQLVQSGAEVKKPGASVKVSCKASGYTFTRYYLNWVRQAPGQGLEWIGMIDPSVSETHYAQKFQGRATLTVDKSTSTAYMELSSLRSEDTAVYYCSQIRLPYYYAMDSWGQGTTVTVSS
VL: B1 VL with N30S
notes: as for B1
B3: 531_1L2_variant8 Fab (Fab, V domains shown)
VH: B1 VH with W33Y
VL: B1 VL with N30S
notes: as for B1
B4: 531_1L2_variant14 Fab (Fab, V domains shown)
VH: B2 VH with G26D, Y33W, I48M, A68V, L70M, V72R, K74T, A79V
VL: B1 VL
notes: as for B1
B5: 531_1L2_variant17 Fab (Fab, V domains shown)
VH: B2 VH with G26D, Y33W
VL: B1 VL with N30S
notes: as for B1
B6: 531_1L2_variant4 Fab (Fab, V domains shown)
VH: B1 VH with W33Y
VL: B1 VL
notes: as for B1
B7: 531_1L2_variant24 Fab (Fab, V domains shown)
VH: B2 VH
VL: B1 VL with N30S, Y71F
notes: as for B1
B8: 531_1L2_variant6 Fab (Fab, V domains shown)
VH: B1 VH
VL: B1 VL with N30S
notes: as for B1
B9: 531_1L2_variant16 Fab (Fab, V domains shown)
VH: B2 VH
VL: B1 VL
notes: as for B1
B10: anti-TfR 531v25mAb-GAA (antibody, human IgG1, kappa)
heavy 1: QVQLVQSGAEVKKPGASVKVSCKASGYTFTRYYLNWVRQAPGQGLEWIGMIDPSVSETHYAQKFQGRATLTVDKSTSTAYMELSSLRSEDTAVYYCSQIRLPYYYAMDSWGQGTTVTVSSASTKGPSVFPLAPSSKSTSGGTAALGCLVKDYFPEPVTVSWNSGALTSGVHTFPAVLQSSGLYSLSSVVTVPSSSLGTQTYICNVNHKPSNTKVDKKVEPKSCDKTHTCPPCPAPELLGGPSVFLFPPKPKDTLMISRTPEVTCVVVDVSHEDPEVKFNWYVDGVEVHNAKTKPREEQYNNASRVVSVLTVLHQDWLNGKEYKCKVSNKALPAPIEKTISKAKGQPREPQVCTLPPSRDELTKNQVSLSCAVKGFYPSDIAVEWESNGQPENNYKTTPPVLDSDGSFFLVSKLTVDKSRWQQGNVFSCSVMHEALHNRFTQKSLSLSPG
heavy 2: not shown
light: not shown
B11: anti-TfR 531v25-Fab-LC-GAA (Fab)
heavy: QVQLVQSGAEVKKPGASVKVSCKASGYTFTRYYLNWVRQAPGQGLEWIGMIDPSVSETHYAQKFQGRATLTVDKSTSTAYMELSSLRSEDTAVYYCSQIRLPYYYAMDSWGQGTTVTVSSASTKGPSVFPLAPSSKSTSGGTAALGCLVKDYFPEPVTVSWNSGALTSGVHTFPAVLQSSGLYSLSSVVTVPSSSLGTQTYICNVNHKPSNTKVDKKVEPKSC
light: not shown
notes: Fab with human GAA fused to the C-terminus of the light chain; also called 531v25Fab-GAA

Molecular target: His-tagged mouse TfR ectodomain (mTFRC_89_764; mature protein) (mouse, UniProt Q62351 89-763)
Sequence (Q62351 other isoform, or with tags, fused parts or gaps): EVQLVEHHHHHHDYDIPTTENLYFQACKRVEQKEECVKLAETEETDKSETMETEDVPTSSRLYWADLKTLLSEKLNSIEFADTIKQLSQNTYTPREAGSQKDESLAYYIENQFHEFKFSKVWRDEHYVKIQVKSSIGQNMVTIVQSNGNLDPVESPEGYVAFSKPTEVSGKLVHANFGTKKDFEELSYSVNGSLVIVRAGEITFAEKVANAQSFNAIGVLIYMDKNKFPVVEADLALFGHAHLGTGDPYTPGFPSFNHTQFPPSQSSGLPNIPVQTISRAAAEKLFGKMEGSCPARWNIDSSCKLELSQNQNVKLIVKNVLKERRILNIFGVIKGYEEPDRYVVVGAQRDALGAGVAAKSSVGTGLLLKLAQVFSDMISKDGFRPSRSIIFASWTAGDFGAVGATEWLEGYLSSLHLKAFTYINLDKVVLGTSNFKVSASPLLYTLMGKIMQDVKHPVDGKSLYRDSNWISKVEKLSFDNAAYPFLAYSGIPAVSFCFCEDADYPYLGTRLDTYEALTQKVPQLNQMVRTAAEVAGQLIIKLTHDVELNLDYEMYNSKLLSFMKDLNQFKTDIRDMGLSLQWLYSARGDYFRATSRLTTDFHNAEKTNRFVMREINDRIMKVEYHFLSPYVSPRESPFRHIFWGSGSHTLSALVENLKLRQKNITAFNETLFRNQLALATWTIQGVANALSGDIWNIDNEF
Test: SPR, His-tagged mTfR ectodomain captured on anti-His
Protocol: (§1) Binding of the humanized Fab variants to human, cynomolgus and mouse TfR was assessed using SPR at pH 7.4. Experiments were run on a Bruker MASS-2 instrument with HBS-EP+ as running buffer and sample diluent (Cytiva Life Sciences, #BR100826). HCA sensor chips (Bruker, #1862614) were immobilized with anti-His antibody (His capture kit, Cytiva Life Sciences, #28995056) following manufacturer's instructions. About 10,000 RU of anti-His was obtained. His-tagged hTfR ectodomain (SEQ ID NO: 39), cTfR ectodomain (SEQ ID NO: 40) or mouse TfR ectodomain (SEQ ID NO: 41) (5 μg/ml) was captured for 1 min at 10 μL/min. Concentration series of the humanized Fab variants were then injected for 4 min at 30 μL/min over hTfR surfaces and dissociation was monitored for 5 min. Surface was regenerated with one 1 min pulse of 10 mM glycine-HCl at pH 1.5.

Row | Binder | binding result
1 | B1 | no binding
2 | B2 | no binding
3 | B3 | no binding
4 | B4 | no binding
5 | B5 | no binding
6 | B6 | no binding
7 | B7 | no binding
8 | B8 | no binding
9 | B9 | no binding

Molecular target: T1, cTfR expressed on 300.19 cells (SEQ ID NO: 2) (cynomolgus monkey, UniProt Q5RDH6 1-760 (Pongo abelii entry))
T1 construct: Murine pre-B cell line 300.19, stably transfected with a plasmid expressing cTfR; also called cynomolgus TfR; cTfR-expressing 300.19 cells
T1 chain: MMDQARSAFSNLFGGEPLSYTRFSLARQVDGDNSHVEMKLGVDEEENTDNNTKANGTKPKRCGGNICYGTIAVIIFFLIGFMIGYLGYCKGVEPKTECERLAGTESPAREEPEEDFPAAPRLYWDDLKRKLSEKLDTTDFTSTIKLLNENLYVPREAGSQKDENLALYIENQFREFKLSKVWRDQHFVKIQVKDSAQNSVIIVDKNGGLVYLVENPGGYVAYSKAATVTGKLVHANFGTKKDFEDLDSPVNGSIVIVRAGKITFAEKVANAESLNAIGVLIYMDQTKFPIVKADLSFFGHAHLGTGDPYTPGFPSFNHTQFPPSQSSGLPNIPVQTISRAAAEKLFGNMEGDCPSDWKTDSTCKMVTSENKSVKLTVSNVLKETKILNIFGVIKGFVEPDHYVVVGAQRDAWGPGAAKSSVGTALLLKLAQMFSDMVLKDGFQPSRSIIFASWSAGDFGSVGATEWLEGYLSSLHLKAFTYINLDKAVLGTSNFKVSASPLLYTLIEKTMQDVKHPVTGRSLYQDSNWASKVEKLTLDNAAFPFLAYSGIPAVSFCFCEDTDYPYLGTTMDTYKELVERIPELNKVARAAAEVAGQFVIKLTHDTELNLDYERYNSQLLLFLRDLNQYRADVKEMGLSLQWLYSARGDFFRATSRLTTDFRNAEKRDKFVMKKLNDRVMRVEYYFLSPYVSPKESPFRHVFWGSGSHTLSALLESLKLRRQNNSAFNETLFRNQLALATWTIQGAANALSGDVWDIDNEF
Test: flow cytometry; EC50 on cTfR cells against EC50 on hTfR cells
Protocol: (§2) The binding kinetics of the four anti-TfR-GAA molecules to hTfR-expressing 300.19 cells and cTfR-expressing 300.19 cells were determined by flow cytometry. 300.19 is a murine pre-B cell line, originating from a lymphoma, and was stably transfected by nucleoporation with a plasmid expressing either hTfR or cTfR (SEQ ID NO: 1 and SEQ ID NO: 2, respectively).
(§3) 300.19 TFRC-expressing cells were coated at 5×10⁵ cells/well on 96-well High Bind plate (MSD L15XB-3) and 100 μL/well of anti-TfR-GAA molecule were added and incubated for 45 min at 4° C. and washed three times with PBS 1% BSA. […] Antibody binding was evaluated after centrifugation and resuspension of cells by adding 200 μl/well PBS 1% BSA and read using Guava® easyCyte™ 8HT Flow Cytometry System.

Row | Binder | Cynomolgus/human ratio (TfR)
10 | B10 | 1
11 | B11 | 7.5

Molecular target: T1, cTfR expressed on 300.19 cells (SEQ ID …)
Test: flow cytometry on cTfR-expressing 300.19 cells
Protocol: as §2, §3

Row | Binder | EC50 [nM]
12 | B10 | 2.6
13 | B11 | 74.6

Molecular target: T2, His-tagged human TfR ectodomain (hTFRC_89-760_G142S; mature protein) (human, UniProt P02786 89-760)
T2 construct: It carries the G142S haplotype; also called hTfR ectodomain
T2 sequence (P02786 89-760 G142S): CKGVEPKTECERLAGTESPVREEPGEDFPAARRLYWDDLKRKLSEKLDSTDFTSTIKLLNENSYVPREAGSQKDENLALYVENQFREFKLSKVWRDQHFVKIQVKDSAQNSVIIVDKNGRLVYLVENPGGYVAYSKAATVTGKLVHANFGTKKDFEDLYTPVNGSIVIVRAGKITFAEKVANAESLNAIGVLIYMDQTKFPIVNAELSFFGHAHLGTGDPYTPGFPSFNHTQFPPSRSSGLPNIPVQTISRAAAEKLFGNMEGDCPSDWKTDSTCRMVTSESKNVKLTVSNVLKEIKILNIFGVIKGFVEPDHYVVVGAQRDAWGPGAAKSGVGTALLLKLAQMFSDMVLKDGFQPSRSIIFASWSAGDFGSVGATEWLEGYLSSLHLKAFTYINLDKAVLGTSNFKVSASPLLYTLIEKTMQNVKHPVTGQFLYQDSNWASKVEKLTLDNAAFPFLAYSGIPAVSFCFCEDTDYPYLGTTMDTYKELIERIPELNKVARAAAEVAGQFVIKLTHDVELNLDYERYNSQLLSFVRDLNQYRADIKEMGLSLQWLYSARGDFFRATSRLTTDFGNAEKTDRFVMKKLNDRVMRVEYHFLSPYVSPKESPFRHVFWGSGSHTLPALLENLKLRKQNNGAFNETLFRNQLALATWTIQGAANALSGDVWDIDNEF
Test: SPR, His-tagged TfR ectodomain captured on anti-His, 1:1 fit
Protocol: as §1

Row | Binder | Kd [nM]
14 | B1 | 183
15 | B2 | 3.71
16 | B3 | 61.2
17 | B4 | 8.6
18 | B5 | 5.91
19 | B6 | 120
20 | B7 | 10.2
21 | B8 | 77.4
22 | B9 | 10.2

Molecular target: T3, His-tagged cynomolgus monkey TfR ectodomain (cyTFRC_89_760; mature protein) (cynomolgus monkey (Macaca fascicularis), UniProt Q5RDH6 89-760 (Pongo abelii entry))
T3 construct: also called cTfR; cTfR ectodomain
T3 chain: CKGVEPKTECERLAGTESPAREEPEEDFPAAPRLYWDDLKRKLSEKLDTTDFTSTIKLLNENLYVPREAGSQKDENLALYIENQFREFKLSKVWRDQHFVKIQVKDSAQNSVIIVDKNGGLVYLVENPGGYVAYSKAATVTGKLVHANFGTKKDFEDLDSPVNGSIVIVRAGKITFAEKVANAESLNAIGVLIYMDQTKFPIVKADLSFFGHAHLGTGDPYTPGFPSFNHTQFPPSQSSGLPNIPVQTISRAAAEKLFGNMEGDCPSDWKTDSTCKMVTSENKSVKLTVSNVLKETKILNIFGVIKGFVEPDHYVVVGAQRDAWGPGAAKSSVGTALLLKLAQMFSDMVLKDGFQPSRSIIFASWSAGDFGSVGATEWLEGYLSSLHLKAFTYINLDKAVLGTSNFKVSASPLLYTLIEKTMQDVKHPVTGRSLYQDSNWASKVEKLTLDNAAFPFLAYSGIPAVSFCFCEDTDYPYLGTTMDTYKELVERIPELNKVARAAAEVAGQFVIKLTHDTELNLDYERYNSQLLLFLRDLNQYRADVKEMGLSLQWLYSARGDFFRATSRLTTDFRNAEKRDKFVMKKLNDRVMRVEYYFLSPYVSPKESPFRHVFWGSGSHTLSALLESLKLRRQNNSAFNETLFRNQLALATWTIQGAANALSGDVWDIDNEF
Test: as above
Protocol: as §1

Row | Binder | Kd [nM]
23 | B1 | 204
24 | B2 | 30.9
25 | B3 | 475
26 | B4 | 75.1
27 | B5 | 28.9
28 | B6 | 1210
29 | B7 | 84.6
30 | B8 | 300
31 | B9 | 70.4

Molecular target: T3, His-tagged cynomolgus monkey TfR …
Test: SPR; KD on cTfR against KD on hTfR
Protocol: as §1

Row | Binder | Cynomolgus/human KD ratio
32 | B1 | 1.1
33 | B2 | 8.3
34 | B3 | 7.8
35 | B4 | 8.7
36 | B5 | 4.9
37 | B6 | 10.1
38 | B7 | 8.3
39 | B8 | 3.9
40 | B9 | 6.9

Molecular target: T4, hTfR expressed on 300.19 cells (SEQ ID NO: 1) (human, UniProt P02786 1-760)
T4 construct: Murine pre-B cell line 300.19, stably transfected with a plasmid expressing hTfR; also called human TfR; hTfR-expressing 300.19 cells
Test: flow cytometry on hTfR-expressing 300.19 cells
Protocol: as §2, §3

Row | Binder | EC50 [nM]
41 | B10 | 2.7
42 | B11 | 9.9

Reference: patent US20240226314A1 (Sanofi, published 2024)
